Target: GRASP65-homologue protein 1 (Grh1) (S. cerevisiae) (UniProt Q04410)
Experiment: circular dichroism + electron paramagnetic resonance

Sequence of UniProt Q04410 (Q04410 whole entry): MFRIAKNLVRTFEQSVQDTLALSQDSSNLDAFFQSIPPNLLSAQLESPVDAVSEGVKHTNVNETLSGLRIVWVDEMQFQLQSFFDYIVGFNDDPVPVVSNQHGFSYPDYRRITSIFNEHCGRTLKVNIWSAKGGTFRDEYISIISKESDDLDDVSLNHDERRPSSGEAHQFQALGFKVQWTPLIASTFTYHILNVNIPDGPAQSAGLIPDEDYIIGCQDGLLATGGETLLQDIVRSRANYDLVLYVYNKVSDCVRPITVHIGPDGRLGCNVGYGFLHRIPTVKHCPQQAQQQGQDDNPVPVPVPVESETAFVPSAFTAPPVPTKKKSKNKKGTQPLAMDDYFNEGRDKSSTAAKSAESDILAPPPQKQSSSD

Kd: > 1 mM
Substance: Acyl-CoA Binding Protein 1 (ACBP) (from UniProt P31787 1-87) (natural protein)
